Results published in paper PMC6448480, “A Two-Way Proteome Microarray Strategy to Identify Novel Mycobacterium tuberculosis-Human Interactors” (Frontiers in Cellular and Infection Microbiology, 2019).

B1: Rv3241c (Ribosome hibernation promotion factor, Hpf) on the Mtb proteome microarray (natural protein)
chain: MSRLAVDSGQVLAEPKSNAEIVFKGRNVEIPDHFRIYVSQKLARLERFDRTIYLFDVELDHERNRRQRKSCQRVEITARGRGPVVRGEACADSFYAALESAVVKLESRLRRGKDRRKVHYGDKTPVSLAEATAVVPAPENGFNTRPAEAHDHDGAVVEREPGRIVRTKEHPAKPMSVDDALYQMELVGHDFFLFYDKDTERPSVVYRRHAYDYGLIRLA
B2: Rv0577 (Putative glyoxylase Cfp32) on the Mtb proteome microarray (natural protein)
chain: MPKRSEYRQGTPNWVDLQTTDQSAAKKFYTSLFGWGYDDNPVPGGGGVYSMATLNGEAVAAIAPMPPGAPEGMPPIWNTYIAVDDVDAVVDKVVPGGGQVMMPAFDIGDAGRMSFITDPTGAAVGLWQANRHIGATLVNETGTLIWNELLTDKPDLALAFYEAVVGLTHSSMEIAAGQNYRVLKAGDAEVGGCMEPPMPGVPNHWHVYFAVDDADATAAKAAAAGGQVIAEPADIPSVGRFAVLSDPQGAIFSVLKPAPQQ

Molecular target: T1, myc-tagged SMAD2 (human, UniProt Q15796 1-467, labeled with Cy3)
T1 construct: SMAD2, human; also called SMAD2-myc; source: cloned into pCMV-C-myc vector, purified as previously reported (Li et al., 2013)
Assay: peptide or protein array
Settings: both partners purified

T1 sequence (Q15796 whole entry): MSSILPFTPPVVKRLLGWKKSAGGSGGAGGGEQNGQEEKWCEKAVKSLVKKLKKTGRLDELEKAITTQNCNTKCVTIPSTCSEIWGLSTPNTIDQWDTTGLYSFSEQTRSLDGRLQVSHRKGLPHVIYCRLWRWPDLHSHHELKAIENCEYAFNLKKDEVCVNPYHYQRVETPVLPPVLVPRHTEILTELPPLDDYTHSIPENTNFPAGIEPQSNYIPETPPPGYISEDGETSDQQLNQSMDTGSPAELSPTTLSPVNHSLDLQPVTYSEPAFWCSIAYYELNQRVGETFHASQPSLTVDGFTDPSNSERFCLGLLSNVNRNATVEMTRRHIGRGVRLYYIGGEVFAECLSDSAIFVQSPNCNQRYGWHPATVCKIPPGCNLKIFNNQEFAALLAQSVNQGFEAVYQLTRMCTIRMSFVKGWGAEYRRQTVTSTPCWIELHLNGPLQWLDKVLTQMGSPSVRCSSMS

Binder | binding result
B1 | binds
B2 | binds
